This test addresses T1, purified integrin αIIbβ3 (R&D Systems #7148-A2-025) (UniProt P08514 32-993; P05106 27-718).
T1 construct: One protein preparation was tested in two states; also called GPIIb-IIIa; CD41/CD61
The experiment in a line: SPR single-cycle kinetics, sEng-Strep on SA chip, activated Ca2+/Mn2+-loaded integrin as analyte, 25° C.; apparent value; activated Ca2+/Mn2+-loaded integrin αIIbβ3 as analyte. Here is the method: The association between sEng-Strep-tag® II and integrin αIIbβ3 was analyzed by surface plasmon resonance (SPR) on a streptavidin (SA) biosensor (Cytiva) at 25° C. First, we immobilized resonance units (RU) of sEng-Strep-tag® II onto the test flow cell of a SA chip through the C-terminal StrepII-tag to provide a sEng concentration on the surface of ˜10 μM. The reference flow cell was not modified. […] Polysorbate 20 (PS20), either supplemented with 1 mM MnCl2 and 1 mM CaCl2 or after extensive dialysis against EDTA to remove residual divalent cations in the protein preparation. Integrin αIIbβ3 (25 μg per experiment) was resuspended to 0.2 mg/ml (˜1 μM) in the appropriate running buffer before use. Analysis was performed with the BiaEvaluation version 3.0.2 software (Cytiva) and the Anabel webserver.
To investigate this interaction, we analyzed the association between sEng-Strep-tag® II (sEng-Strep) and integrin αIIbβ3 by surface plasmon resonance (SPR) on a streptavidin (SA) biosensor (Cytiva) at 25° C. using single-cycle kinetics. When non-activated integrin αIIbβ3 was flowed over surface-immobilized sEng-Strep, no binding was detected (FIG. 5).

B1: sEng-Strep-tag II (streptavidin-tagged construct of soluble endoglin) (receptor, human, UniProt P17813 26-586, looked up)
chain: ETVHCDLQPVGPERGEVTYTTSQVSKGCVAQAPNAILEVHVLFLEFPTGPSQLELTLQASKQNGTWPREVLLVLSVNSSVFLHLQALGIPLHLAYNSSLVTFQEPPGVNTTELPSFPKTQILEWAAERGPITSAAELNDPQSILLRLGQAQGSLSFCMLEASQDMGRTLEWRPRTPALVRGCHLEGVAGHKEAHILRVLPGHSAGPRTVTVKVELSCAPGDLDAVLILQGPPYVSWLIDANHNMQIWTTGEYSFKIFPEKNIRGFKLPDTPQGLLGEARMLNASIVASFVELPLASIVSLHASSCGGRLQTSPAPIQTTPPKDTCSPELLMSLIQTKCADDAMTLVLKKELVAHLKCTITGLTFWDPSCEAEDRGDKFVLRSAYSSCGMQVSASMISNEAVVNILSSSSPQRKKVHCLNMDSLSFQLGLYLSPHFLQASNTIEPGQQSFVQVRVSPSVSEFLLQLDSCHLDLGPEGGTVELIQGRAAKGNCVSLLSPSPEGDPRFSFLLHFYTVPIPKTGTLSCTVALRPKTGSQDQEVHRTVFMRLNIISPDLSGCTSKG
notes: extracellular domain; Immobilised on a streptavidin (SA) chip through the C-terminal StrepII-tag; not shown: C-terminal Strep-tag II
Turning to B1, the Kd was < 9 nM and the off-rate (koff) (in general, the first-order rate constant of dissociation) is < 0.008 s⁻¹.

Source of the values: patent US20250099540A1 (INSERM INSTITUT NATIONAL DE LA SANT ET DE LA RECHERCHE M …, published 2025).
